Assay results from ChEMBL document CHEMBL1250451, “Mechanistic insights into a Ca2+-dependent family of alpha-mannosidases in a human gut symbiont” (Nat Chem Biol, 2010).

Tests used:
Format in all cases: protein assay
[1] = substrate: OC[C@H]1O[C@H](O[C@H]2[C@H](O)[C@H](O)[C@@H](O)O[C@@H]2CO)[C@@H](O)[C@@H](O)[C@@H]1O; experiment: (§1) Activity of Bacteroides thetaiotaomicron GH92 alpha-mannosidase GH92 alpha-mannosidase 3530 assessed as mannose release after 16 hrs by HPLC
[2] = substrate: O=[N+]([O-])c1ccc(O[C@H]2O[C@H](CO)[C@@H](O)[C@H](O)[C@@H]2O)cc1; experiment: as §1
[3] = substrate: OC[C@H]1O[C@H](O[C@H]2[C@H](O)[C@H](O)[C@@H](O)O[C@@H]2CO)[C@@H](O)[C@@H](O)[C@@H]1O; experiment: (§2) Ratio of Kcat to Km for Bacteroides thetaiotaomicron GH92 alpha-mannosidase GH92 alpha-mannosidase 3530 assessed as mannose release after 16 hrs by HPLC
[4] = substrate: O=[N+]([O-])c1ccc(O[C@H]2O[C@H](CO)[C@@H](O)[C@H](O)[C@@H]2O)cc1; experiment: as §2
[5] = substrate: OC[C@H]1O[C@H](O[C@H]2[C@@H](O)[C@H](O)[C@@H](CO)O[C@@H]2O)[C@@H](O)[C@@H](O)[C@@H]1O; experiment: (§3) Ratio of Kcat to Km for Bacteroides thetaiotaomicron GH92 alpha-mannosidase GH92 alpha-mannosidase 3784 assessed as mannose release after 16 hrs by HPLC
[6] = substrate: O=[N+]([O-])c1ccc(O[C@H]2O[C@H](CO)[C@@H](O)[C@H](O)[C@@H]2O)cc1; experiment: as §3
[7] = substrate: OC[C@H]1O[C@H](O[C@H]2[C@@H](O)[C@H](O)[C@@H](CO)O[C@@H]2O)[C@@H](O)[C@@H](O)[C@@H]1O; experiment: (§4) Activity of Bacteroides thetaiotaomicron GH92 alpha-mannosidase GH92 alpha-mannosidase 3784 assessed as mannose release after 16 hrs by HPLC
[8] = substrate: O=[N+]([O-])c1ccc(O[C@H]2O[C@H](CO)[C@@H](O)[C@H](O)[C@@H]2O)cc1; experiment: as §4
[9] = substrate: OC[C@H]1O[C@H](O[C@H]2[C@@H](O)[C@H](O)[C@@H](CO)O[C@@H]2O)[C@@H](O)[C@@H](O)[C@@H]1O; experiment: (§5) Ratio of Kcat to Km for Bacteroides thetaiotaomicron GH92 alpha-mannosidase GH92 alpha-mannosidase 3962 assessed as mannose release after 16 hrs by HPLC
[10] = substrate: O=[N+]([O-])c1ccc(O[C@H]2O[C@H](CO)[C@@H](O)[C@H](O)[C@@H]2O)cc1; experiment: as §5
[11] = substrate: OC[C@H]1O[C@H](O[C@H]2[C@@H](O)[C@H](O)[C@@H](CO)O[C@@H]2O)[C@@H](O)[C@@H](O)[C@@H]1O; experiment: (§6) Activity of Bacteroides thetaiotaomicron GH92 alpha-mannosidase GH92 alpha-mannosidase 3962 assessed as mannose release after 16 hrs by HPLC
[12] = substrate: O=[N+]([O-])c1ccc(O[C@H]2O[C@H](CO)[C@@H](O)[C@H](O)[C@@H]2O)cc1; experiment: as §6

B1: Alpha-1,2-mannosidase (BT_3530) (Bacteroides thetaiotaomicron), Q8A1X8 (protein)
chain: MTPSVAQNTKYVNLFIGTSGDNGQVAPGAAAPFGMVCVCPDNDPRSHAGYDYAVTKVSGISVNRLSGVGCSGGGGNLRIRPVAPSQELHIKKSREKATPGYYSTAFTNGIKTELTATNAMAVERYKFPRSLSAALWIDFASTFEDVATCHYKRISETCIEGYVQAKNVCGHGCYKLYFSLNTSQPFQLEEQKETTACLTFGKKVRSVEVRIGLSALSSELASWECARWEKMDFEDVKSRTADQWEKQLSAIDVKGGKKDDRVIFYTSLYRTYLSPADVSSPDGAYLGTDGKVYISEDFRYYSNWSLWDTFRTKFPLLVLTEPAKMRDMATSLIHLYATGKKDWSTGFESTPTVRTEHAVILLLDAYRKGITNLDFRKGYAGMKQEMERLPMRSPDQKMESAYDLWAMAKIAEIIGEKADSEQYRQRSVSLFEETWKKEFMNVTPAFEVMKNNGLYQGTRWQYRWAAPQYIDKMIEWVGQDSLRLQLTYFFDHHLYNQGNEPDIHVPYLFNRLGAPEKTQQIVRSLMTEPMIHKYGGNSEFKTPYLGKAFKNAPEGYSPEMDEDDGTMSAWYVFGAMGFYPLLVGDEYYDLTSPLFDRVLLRLTNGNVLTIQTEGRKKKDAPIKSIHFNGKKIADYRISHNELIKGGELIYNYK
Q: B1 was tested. Which Km [1] did it give?
A: The Km was 610 µM.

Q: What about the kcat [1] of the same protein?
A: The kcat was 0.001 s⁻¹.

Q: And the Km [2]?
A: Its Km is “Not Active”.

Q: And the kcat [2]?
A: The kcat was “Not Active”.

Q: What about the kcat/Km [3] of the same protein?
A: Its kcat/Km is 1.58 M⁻¹ s⁻¹.

Q: And the kcat/Km [4]?
A: Its kcat/Km is “Not Active”.

B2: Alpha-1,2-mannosidase (BT_3784) (Bacteroides thetaiotaomicron), Q8A182 (protein)
chain: MKTHFSFKHLLFIGGAVLYSMQISAVKNPVDYVSTLVGTQSKFELSTGNTYPATALPWGMNFWTPQTGKMGDGWAYTYNADKIRGFKQTHQPSPWMNDYGQFSIMPITGGLVFDQDQRASWFSHKAEVAKPYYYKVYLADHDVTTELVPTERAAMFRFTYPETKNAYVVIDAFDKGSYVKVIPEENKIIGYSTKNSGGVPENFKNYFVIQFDKPFTFTSGVKENNILPNETEVQGNHTGAIIGFATQKGEIVHARVASSFISYEQAELNLKELGKDSFDQLVTKGKDIWNREMSKVDVEDDNIDNLRTFYSCLYRSMLFPRSFYEIDAKGQVVHYSPYNGKVLPGYMFTDTGFWDTFRCLFPFLNLMYPSMNQKMQEGLVNAYLESGFLPEWASPGHRDCMVGNNSASVVADAYIKGLRGYDIETLWEALKHDANAHLRGTASGRLAYDAYNKLGYVPNNIGIGQNVARTLEYAYNDWTIYTLGKKLGKPASEIDIFKQRALNYKNVYHPKRKLMVGKDDKGVFNPKFDAVDWSGEFCEGNSWHWSFCVFHDPQGLIDLMGGKKEFNNMMDSVFVIPGKQGMESRGMIHEMREMQVMNMGQYAHGNQPIQHMVYLYNYSGEPWKAQHWVREIMDKLYTAGPDGYCGDEDNGQTSAWYVFSALGFYPVCPGTDQYILGTPLFKSAKLHLENGKTVTIKASNNNTDNRYVKDMKVNGKAFTRNYLTHDQLLKGANIQYQMSPTPNKQRGTTEKDIPYSLSFE
Q: For B2, which kcat/Km [5] is on record?
A: Its kcat/Km is 183 M⁻¹ s⁻¹.

Q: What about the kcat/Km [6] of the same protein?
A: Its kcat/Km is 11.5 M⁻¹ s⁻¹.

Q: And the Km [7]?
A: The Km was 2300 µM.

Q: What about the kcat [7] of the same protein?
A: The kcat was 0.45 s⁻¹.

Q: And the Km [8]?
A: The Km was 6900 µM.

Q: What about the kcat [8] of the same protein?
A: Its kcat is 0.08 s⁻¹.

B3: Glycoside hydrolase family 92 (BT_3962) (Bacteroides thetaiotaomicron), Q8A0Q9 (protein)
chain: MNKQKLLSITMTLLLGVSSIFAQKQPVDYVNPLMGTDSKISLSNGNTYPAIALPWGMNFWMPQTGKMGDGWAYTYASDKIRGFKQTHQPSPWINDYGQFSIMPMTKQLKIDQDSRASWFSHKAEKATPYYYSVYLSEYNMTTEIAPTERCAYFRFTFPEASDAYVVVDAFDRGSYVKVIPEENKIVGYTTRNSGGVPQNFRNYFVIEFDKPFTFNKVWADYHLVETHLELQSNHVGAAIGFSTKKGEQVHAKVASSFISPEQAELNLKEIGNKTFEQTKEAGRKAWNDVLGRIKVEDDDENRMRTFYSCLYRSVLFPRMFHEVNAKGETVHYSPYNGEIRPGYMFTDTGFWDTFRCLFPFVNLIYPSMGEKMQEGLLNTYLESGFFPEWASPGHRGCMVGNNSASVVADAFMKNVTKADAEKMYEGLLKGANSVHPRVSTTGRRGYEYYNKLGYVPYDVKINENAARTLEYAYDDWCIYRMGEKLGRPAEELELYKSRSQNYRNLFDPETKLMRGKNADGTFQTPFNPFKWGDAFTEGNSWHYTWSVFHDVQGLADLMGGRKMFVSMLDSVFNLPPIFDDSYYGGVIHEIREMEIANMGNYAHGNQPIQHMIYLYNYAGEPWKAQYWLREVMNRLYFATPDGYCGDEDNGQTSAWYVFTALGFYPVCPGSNEYVMGAPYFKKATITLENGKKLEISAPKNSDANRYIRSLNYNGKNYTKNYLNHFDLLKGGRLVFDMDNKPNKGRGINESDFPYSFSRDNK
Q: How did the kcat/Km [9] turn out when B3 was run?
A: Its kcat/Km is 31700 M⁻¹ s⁻¹.

Q: What about the kcat/Km [10] of the same protein?
A: Its kcat/Km is 56.7 M⁻¹ s⁻¹.

Q: What about the Km [11] of the same protein?
A: Its Km is 430 µM.

Q: And the kcat [11]?
A: The kcat was 13.7 s⁻¹.

Q: What about the Km [12] of the same protein?
A: Its Km is 5000 µM.

Q: And the kcat [12]?
A: Its kcat is 0.283 s⁻¹.
